From paper PMC10933337, “RhoGDI phosphorylation by PKC promotes its interaction with death receptor p75^NTR to gate axon growth and neuron survival” (EMBO Reports, 2024)
One block for each molecule: values may come before it.

Tests used:
p75NTR [1] = molecular target: p75NTR (UniProt Q9Z0W1); test: p75NTR IP, Flag-RhoGDI immunoblot; details: reference: wild type RhoGDI; sites S34
p75NTR [2] = molecular target: p75NTR (UniProt Q9Z0W1); test: p75NTR IP, Flag immunoblot; details: reference: RhoGDI-59 wild type, PMA; sites S34
[3] = molecular target: T1, human p75^NTR JXT domain (K273-D332) (human, UniProt P08138 273-332); test: NMR titration; unlabeled p75NTR JXT titrated to 15N-labeled RhoGDI NTD S34D, [1H-15N] HSQC, 28 °C, 10 mM PIPES pH 6.8; 0.3 mM RhoGDI NTD and 1.5 mM p75NTR JXT; details: both partners purified
T1 construct: juxtamembrane domain of human p75NTR, K273-D332, ~6.6 kDa; Cloned in a pET-32a-derived vector; unlabeled or 15N,13C-labeled for NMR; source: E. coli BL21 (DE3), purified (Ni-NTA, TEV cleavage, gel filtration, MonoS ion exchange)
T1 sequence (looked up): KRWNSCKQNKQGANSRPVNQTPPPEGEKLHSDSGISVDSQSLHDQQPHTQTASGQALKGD

binding against the reference (p75NTR [1]): weaker
Molecule: RhoGDI (from UniProt Q99PT1) S34A

binding against the reference (p75NTR [2]): lost
Molecule: RhoGDI RhoGDI-59, 59 N-terminal residues (fused to GST) (from UniProt Q99PT1) RhoGDI-59 S34A, PMA

binding result [3]: binds
B1: human RhoGDI NTD^S34D (A2-A60) (domain or fragment, UniProt P52565 2-60, looked up)
chain: AEQEPTAEQLAQIAAENEEDEHSVNYKPPAQKDIQEIQELDKDDESLRKYKEALLGRVA
notes: N-terminal domain of RhoGDI, A2-A60, ~6.8 kDa, with the phosphorylation-mimetic mutation S34D; Cloned in a pET-32a-derived vector; 15N- or 15N,13C-labeled or unlabeled for NMR; source: E. coli BL21 (DE3), purified (Ni-NTA, TEV cleavage, gel filtration, MonoQ ion exchange)
